Experimental data as given in patent US20200173960A1.

Experiments:
bevacizumab [1] = assay: cell-based or functional assay
bevacizumab [2] = assay: method not stated; affinity listed for the purchased ADA
bevacizumab [3] = assay: Bevacizumab PK ELISA (anti-idiotype capture) of bevacizumab 50 ug/mL pre-bound with ADA; bevacizumab:ADA 1:1
bevacizumab [4] = assay: Bevacizumab PK ELISA (anti-idiotype capture) of bevacizumab 50 ug/mL pre-bound with ADA; bevacizumab:ADA 5:1
bevacizumab [5] = assay: Bevacizumab PK ELISA (anti-idiotype capture) of bevacizumab 0.5 ug/mL pre-bound with ADA; bevacizumab:ADA 1:1
bevacizumab [6] = assay: Bevacizumab PK ELISA (anti-idiotype capture) of bevacizumab 0.5 ug/mL pre-bound with ADA; bevacizumab:ADA 1:2
bevacizumab [7] = assay: Bevacizumab PK ELISA (anti-idiotype capture) of bevacizumab 0.5 ug/mL pre-bound with ADA; bevacizumab:ADA 1:5
bevacizumab [8] = assay: Bevacizumab PK ELISA (anti-idiotype capture) of bevacizumab 0.5 ug/mL pre-bound with ADA; bevacizumab:ADA 5:1
bevacizumab [9] = assay: Bevacizumab PK ELISA (anti-idiotype capture) of bevacizumab 50 ug/mL pre-bound with ADA; bevacizumab:ADA 10:1
bevacizumab [10] = assay: Bevacizumab PK ELISA (anti-idiotype capture) of bevacizumab 0.5 ug/mL pre-bound with ADA; bevacizumab:ADA 10:1
bevacizumab [11] = assay: Bevacizumab PK ELISA (anti-idiotype capture) of bevacizumab 0.5 ug/mL pre-bound with ADA; bevacizumab:ADA 1:10
bevacizumab [12] = assay: Bevacizumab PK ELISA (anti-idiotype capture) of bevacizumab 0.5 ug/mL pre-bound with ADA; bevacizumab:ADA 1:50
bevacizumab [13] = assay: Bevacizumab PK ELISA (anti-idiotype capture) of bevacizumab 50 ug/mL pre-bound with ADA; bevacizumab:ADA 100:1
bevacizumab [14] = assay: Bevacizumab PK ELISA (anti-idiotype capture) of bevacizumab 0.5 ug/mL pre-bound with ADA; bevacizumab:ADA 1:100

Q: Which results are given for HCA185 (antibody)?
A: Accuracy (%) nSMOL; bevacizumab 0.5 ug/mL; bevacizumab:ADA 1:1 (bevacizumab [1]): 95.5%; Accuracy (%) nSMOL; bevacizumab 0.5 ug/mL; bevacizumab:ADA 1:2 (bevacizumab [1]): 82.1%; Accuracy (%) nSMOL; bevacizumab 0.5 ug/mL; bevacizumab:ADA 1:5 (bevacizumab [1]): 54.8%; Accuracy (%) nSMOL; bevacizumab 0.5 ug/mL; bevacizumab:ADA 1:10 (bevacizumab [1]): 22.8%; Accuracy (%) nSMOL; bevacizumab 0.5 ug/mL; bevacizumab:ADA 1:50 (bevacizumab [1]): 22.9%; Accuracy (%) nSMOL; bevacizumab 0.5 ug/mL; bevacizumab:ADA 1:100 (bevacizumab [1]): 23.1%; Accuracy (%) nSMOL; bevacizumab 0.5 ug/mL; bevacizumab:ADA 5:1 (bevacizumab [1]): 105%; Accuracy (%) nSMOL; bevacizumab 0.5 ug/mL; bevacizumab:ADA 10:1 (bevacizumab [1]): 107%; Accuracy (%) nSMOL; bevacizumab 50 ug/mL; bevacizumab:ADA 1:1 (bevacizumab [1]): 75.7%; Accuracy (%) nSMOL; bevacizumab 50 ug/mL; bevacizumab:ADA 5:1 (bevacizumab [1]): 90.3%; Accuracy (%) nSMOL; bevacizumab 50 ug/mL; bevacizumab:ADA 10:1 (bevacizumab [1]): 95.8%; Accuracy (%) nSMOL; bevacizumab 50 ug/mL; bevacizumab:ADA 100:1 (bevacizumab [1]): 100%; Accuracy (%) nSMOL; bevacizumab first immobilized on Protein A; bevacizumab:ADA 1:1 (bevacizumab [1]): 58.9%; Accuracy (%) nSMOL; bevacizumab first immobilized on Protein A; bevacizumab:ADA 5:1 (bevacizumab [1]): 90%; Accuracy (%) nSMOL; bevacizumab first immobilized on Protein A; bevacizumab:ADA 10:1 (bevacizumab [1]): 106%; Accuracy (%) nSMOL; bevacizumab first immobilized on Protein A; bevacizumab:ADA 100:1 (bevacizumab [1]): 105%; inhibitory effect on quantification values (nSMOL), ratio 1:1 (bevacizumab [1]): 50%; Kd (bevacizumab [2]): 0.4 nM; Accuracy (%) ELISA (bevacizumab [3]): 76.8%; Accuracy (%) ELISA (bevacizumab [4]): 76.2%; Accuracy (%) ELISA (bevacizumab [5]): 73.5%; Accuracy (%) ELISA (bevacizumab [6]): 55.8%; Accuracy (%) ELISA (bevacizumab [7]): 39.6%; Accuracy (%) ELISA (bevacizumab [8]): 86.6%; Accuracy (%) ELISA (bevacizumab [9]): 84.1%; Accuracy (%) ELISA (bevacizumab [10]): 104%; Accuracy (%) ELISA (bevacizumab [11]): 38.9%; Accuracy (%) ELISA (bevacizumab [12]): 37.2%; Accuracy (%) ELISA (bevacizumab [13]): 95.6%; Accuracy (%) ELISA (bevacizumab [14]): 35.2%

Q: MAB11128 (clone2C8) (antibody) was tested. Which Accuracy (%) nSMOL; bevacizumab 0.5 ug/mL; bevacizumab:ADA 1:1 (bevacizumab [1]) did it give?
A: 98.2%

Q: And the Accuracy (%) nSMOL; bevacizumab 0.5 ug/mL; bevacizumab:ADA 1:2 (bevacizumab [1])?
A: 110%

Q: And the Accuracy (%) nSMOL; bevacizumab 0.5 ug/mL; bevacizumab:ADA 1:5 (bevacizumab [1])?
A: 111%

Q: What about the Accuracy (%) nSMOL; bevacizumab 0.5 ug/mL; bevacizumab:ADA 1:10 (bevacizumab [1]) of the same substance?
A: 110%

Q: What about the Accuracy (%) nSMOL; bevacizumab 0.5 ug/mL; bevacizumab:ADA 1:50 (bevacizumab [1]) of the same substance?
A: 110%

Q: What about the Accuracy (%) nSMOL; bevacizumab 0.5 ug/mL; bevacizumab:ADA 1:100 (bevacizumab [1]) of the same substance?
A: 104%

Q: What about the Accuracy (%) nSMOL; bevacizumab 0.5 ug/mL; bevacizumab:ADA 5:1 (bevacizumab [1]) of the same substance?
A: 98%

Q: And the Accuracy (%) nSMOL; bevacizumab 0.5 ug/mL; bevacizumab:ADA 10:1 (bevacizumab [1])?
A: 91.3%

Q: What about the Accuracy (%) nSMOL; bevacizumab 50 ug/mL; bevacizumab:ADA 1:1 (bevacizumab [1]) of the same substance?
A: 102%

Q: What about the Accuracy (%) nSMOL; bevacizumab 50 ug/mL; bevacizumab:ADA 5:1 (bevacizumab [1]) of the same substance?
A: 97.3%

Q: And the Accuracy (%) nSMOL; bevacizumab 50 ug/mL; bevacizumab:ADA 10:1 (bevacizumab [1])?
A: 100%

Q: What about the Accuracy (%) nSMOL; bevacizumab 50 ug/mL; bevacizumab:ADA 100:1 (bevacizumab [1]) of the same substance?
A: 101%

Q: What about the Accuracy (%) nSMOL; bevacizumab first immobilized on Protein A; bevacizumab:ADA 1:1 (bevacizumab [1]) of the same substance?
A: 106%

Q: And the Accuracy (%) nSMOL; bevacizumab first immobilized on Protein A; bevacizumab:ADA 5:1 (bevacizumab [1])?
A: 106%

Q: And the Accuracy (%) nSMOL; bevacizumab first immobilized on Protein A; bevacizumab:ADA 10:1 (bevacizumab [1])?
A: 104%

Q: What about the Accuracy (%) nSMOL; bevacizumab first immobilized on Protein A; bevacizumab:ADA 100:1 (bevacizumab [1]) of the same substance?
A: 109%

Q: And the Accuracy (%) ELISA (bevacizumab [3])?
A: 5.72%

Q: What about the Accuracy (%) ELISA (bevacizumab [4]) of the same substance?
A: 65.5%

Q: And the Accuracy (%) ELISA (bevacizumab [5])?
A: 6.9%

Q: What about the Accuracy (%) ELISA (bevacizumab [6]) of the same substance?
A: 3.2%

Q: And the Accuracy (%) ELISA (bevacizumab [7])?
A: 2.3%

Q: And the Accuracy (%) ELISA (bevacizumab [8])?
A: 14.2%

Q: And the Accuracy (%) ELISA (bevacizumab [9])?
A: 68.5%

Q: And the Accuracy (%) ELISA (bevacizumab [10])?
A: 44.2%

Q: And the Accuracy (%) ELISA (bevacizumab [11])?
A: 2.4%

Q: What about the Accuracy (%) ELISA (bevacizumab [12]) of the same substance?
A: 0.1%

Q: What about the Accuracy (%) ELISA (bevacizumab [13]) of the same substance?
A: 102%

Q: And the Accuracy (%) ELISA (bevacizumab [14])?
A: 0%
